Assay results taken from patent US20250313644A1 (FUTUREGEN BIOPHARMACEUTICAL BEIJING, published 2025).

T1: FASL (UniProt P48023 134-281, limits assumed)
T1 sequence (looked up): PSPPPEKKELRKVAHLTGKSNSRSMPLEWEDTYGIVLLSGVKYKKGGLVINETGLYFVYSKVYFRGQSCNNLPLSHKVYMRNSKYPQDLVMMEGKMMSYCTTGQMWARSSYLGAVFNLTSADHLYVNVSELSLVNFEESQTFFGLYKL

T2: LT-α (UniProt P01374 35-205)
T2 sequence (looked up): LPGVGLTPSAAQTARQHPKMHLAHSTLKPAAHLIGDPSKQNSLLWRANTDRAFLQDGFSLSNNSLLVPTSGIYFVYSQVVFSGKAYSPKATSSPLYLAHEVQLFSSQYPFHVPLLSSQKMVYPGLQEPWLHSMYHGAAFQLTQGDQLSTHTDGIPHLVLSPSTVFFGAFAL

T3: human TL1A (HuTL1A) (human, UniProt O95150 57-251, limits assumed, biotin-labelled in some assays (site not stated))
T3 sequence: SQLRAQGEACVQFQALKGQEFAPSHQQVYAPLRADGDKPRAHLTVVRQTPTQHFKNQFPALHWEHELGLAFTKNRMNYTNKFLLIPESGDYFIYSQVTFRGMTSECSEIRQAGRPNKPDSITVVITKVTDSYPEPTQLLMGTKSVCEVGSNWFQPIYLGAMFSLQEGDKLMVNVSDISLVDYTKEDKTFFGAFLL


Assays:
FASL [1] = biological target: T1, FASL; test: ELISA, coated FASL
Experimental: (§1) In this experiment, ELISA was used to assess the binding ability of monoclonal antibodies to TL1A homologous molecules. Representative members of the TNF ligand superfamily, TNFα, LT-α, LIGHT and FASL, were selected for binding testing. 1 μg/mL of TNFα, LT-α, LIGHT or FASL was coated in a microplate with a carbonate buffer solution at pH=9.6, 100 μL per well, and the microplate was incubated at 4° C. overnight. The microplate was then washed 5 times with PBST, blocked with 300 μL/well of PBS containing 1% BSA, and was incubated at room temperature for 1 hour. After washing 5 times with PBST, about 100 μL each of the M701 monoclonal antibodies and the control antibodies were added to each well, and were incubated at room temperature for 1 hour. After washing 5 times with PBST, 100 μL of HRP-anti-human Fc (Sino Biological) was added to each well, and was incubated at room temperature for 1 hour. After washing 5 times with PBST, 100 μL of colorimetric substrate TMB was added to each well, and color was developed at room temperature for 10 minutes, followed by addition of 1M sulfuric acid to terminate the reaction. OD450 nm was recorded on a microplate reader.

LT-α [2] = biological target: T2, LT-α; test: ELISA, coated LT-α
Experimental: as §1

TNFα [3] = biological target: T4, TNFα (UniProt P01375 77-233); test: ELISA, coated TNFα
Experimental: as §1

LIGHT [4] = biological target: T5, LIGHT (UniProt O43557 74-240, limits assumed); test: ELISA, coated LIGHT
Experimental: as §1

LT-α [5] = biological target: T2, LT-α; test: ELISA, coated LT-α, Ab 25 nM
Experimental: as §1

LT-α [6] = biological target: T2, LT-α; test: ELISA, coated LT-α, Ab 100 nM
Experimental: as §1

human TL1A (HuTL1A) [7] = biological target: T3, human TL1A (HuTL1A); test: cell-based or functional assay
human TL1A (HuTL1A) [8] = biological target: T3, human TL1A (HuTL1A); test: cell-based or functional assay; remark: listed apart in the source
LIGHT [9] = biological target: T5, LIGHT; test: ELISA, coated LIGHT, Ab 100 nM
Experimental: as §1

TNFα [10] = biological target: T4, TNFα; test: ELISA, coated TNF-α, Ab 100 nM
Experimental: as §1

FASL [11] = biological target: T1, FASL; test: ELISA, coated FASL, Ab 0.391 nM
Experimental: as §1

LT-α [12] = biological target: T2, LT-α; test: ELISA, coated LT-α, Ab 0.391 nM
Experimental: as §1

LT-α [13] = biological target: T2, LT-α; test: ELISA, coated LT-α, Ab 1.563 nM
Experimental: as §1

TNFα [14] = biological target: T4, TNFα; test: ELISA, coated TNF-α, Ab 6.25 nM
Experimental: as §1

LIGHT [15] = biological target: T5, LIGHT; test: ELISA, coated LIGHT, Ab 0.391 nM
Experimental: as §1

TNFα [16] = biological target: T4, TNFα; test: ELISA, coated TNF-α, Ab 0.391 nM
Experimental: as §1

TNFα [17] = biological target: T4, TNFα; test: ELISA, coated TNF-α, Ab 1.563 nM
Experimental: as §1

FASL [18] = biological target: T1, FASL; test: ELISA, coated FASL, Ab 0.000 nM (blank)
Experimental: as §1

LT-α [19] = biological target: T2, LT-α; test: ELISA, coated LT-α, Ab 0.000 nM (blank)
Experimental: as §1

TNFα [20] = biological target: T4, TNFα; test: ELISA, coated TNF-α, Ab 0.000 nM (blank)
Experimental: as §1

human TL1A (HuTL1A) [21] = biological target: T3, human TL1A (HuTL1A); test: ELISA: biotin-HuTL1A on streptavidin plate, antibody diluted at pH 7.4, HRP-anti-human Fc, OD450

T4 sequence (P01375 77-233 limits assumed): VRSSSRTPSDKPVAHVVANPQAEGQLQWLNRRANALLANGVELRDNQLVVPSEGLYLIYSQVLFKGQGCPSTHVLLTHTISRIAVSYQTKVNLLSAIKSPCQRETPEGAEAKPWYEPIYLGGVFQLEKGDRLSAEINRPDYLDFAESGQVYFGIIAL
T5 sequence (O43557 74-240 limits assumed): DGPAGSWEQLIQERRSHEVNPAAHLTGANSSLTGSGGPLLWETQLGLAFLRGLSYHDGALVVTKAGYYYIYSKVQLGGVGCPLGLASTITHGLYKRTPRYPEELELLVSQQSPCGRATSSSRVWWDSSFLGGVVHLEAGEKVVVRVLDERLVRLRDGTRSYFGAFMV

Row | Binder | binding result (FASL [1]) | binding result (LT-α [2]) | binding result (TNFα [3]) | binding result (LIGHT [4]) | OD450 nm (LT-α [5]) | OD450 nm (LT-α [6]) | IC50 (read off the curve); SEAP reporter in HEK293T/DR3-NFκB cells with soluble TL1A, OD655 (human TL1A (HuTL1A) [7]) [nM] | IC50 (read off the curve); IFN-γ of human T cells with IL-12, IL-18 and exogenous human TL1A (human TL1A (HuTL1A) [8]) [nM] | OD450 nm (LIGHT [9]) | OD450 nm (TNFα [10]) | OD450 nm (FASL [11]) | OD450 nm (LT-α [12]) | OD450 nm (LT-α [13]) | OD450 nm (TNFα [14]) | OD450 nm (LIGHT [15]) | OD450 nm (TNFα [16]) | OD450 nm (TNFα [17]) | OD450 nm (FASL [18]) | OD450 nm (LT-α [19]) | OD450 nm (TNFα [20]) | also measured
1 | M701-3966 (antibody, human IgG1, kappa, L234A L235A, V domains shown, Fc-engineered IgG1) VH: ELQLQESGPGLVKPSETLSLTCAVSGVSFSDYHWAWIRQPPGKGLEWIGDINHRGHTNYNPSLKSRVTVSIDTSKNQFSLKLSSVTAADTAVYFCARDFPNFIFDYWGQGTLVTVSS VL: DIQLTQSPGTLSLSPGERATLSCRASQSVSSYLAWYQQKPGQAPRLLIYGASKRATGIPDRFSGSGSGTDFTLTISRLEPEDFAVYYCQQYGDSPLTFGQGTKVEIKR | no binding (tested: 100 nM) | no binding (tested: 100 nM) | no binding (tested: 100 nM) | no binding (tested: 100 nM) | 0.0639 | 0.0709 | ~1 | ~0.3 | 0.0876 | 0.0787 | 0.0504 | 0.0604 | 0.0651 | 0.0511 | 0.0558 | 0.0517 | 0.0528 | 0.0692 | 0.0704 | 0.0706 | EC50 (read off the curve) (human TL1A (HuTL1A) [21]): ~0.1 nM
2 | M701-4007 (antibody, human IgG1, kappa, L234A L235A, V domains shown, Fc-engineered IgG1) VH: ELQLQESGPGLVKPSETLSLTCAVSGVSFSDYHWAWIRQPPGKGLEWIGDINHRGHTNYNPSLKSRVTVSIDTSKNQFSLKLSSVTAADTAVYFCARDFPNFIFDFWGQGTLVTVSS VL: DIQLTQSPGTLSLSPGERATLSCRASQSVSTYLAWYQQKPGQAPRLLIYGASKRATGIPDRFSGSGSGTDFTLTISRLEPEDFAVYYCQQYGDSPLTFGQGTKVEIKR | no binding (tested: 100 nM) | no binding (tested: 100 nM) | no binding (tested: 100 nM) | no binding (tested: 100 nM) | 0.0628 | 0.0706 | ~1 | ~0.2 | 0.0853 | 0.079 | 0.0504 | 0.0576 | 0.0625 | 0.0553 | 0.0534 | 0.0557 | 0.0588 | 0.0648 | 0.0662 | 0.0762 | EC50 (read off the curve) (human TL1A (HuTL1A) [21]): ~0.1 nM
